Measurements reported in patent publication US20210403506A1 (XDCEXPLORER SHANGHAI, published 2021).
Square brackets hold non-standard residues; d marks the D form. Ends that are not written are not given here. * marks the point of attachment. Pro(diF) = difluoro-proline, as coded in the source; DiMe = N,N-dimethyl (N-terminal dimethylation); Bpa = N[C@@H](Cc1ccc(C(=O)c2ccccc2)cc1)C(=O)O; PEG8 = NCCOCCOCCOCCOCCOCCOCCOCCOCCC(=O)O; dOic = O=C(O)[C@H]1C[C@H]2CCCC[C@H]2N1; 1Nal = N[C@@H](Cc1cccc2ccccc12)C(=O)O; 2Nal = N[C@@H](Cc1ccc2ccccc2c1)C(=O)O; dNMeY = CN[C@H](Cc1ccc(O)cc1)C(=O)O; Hydrocinnamoyl = O=C(CCc1ccccc1)*; NMehLeu = CN[C@@H](CCC(C)C)C(=O)O; Palmitoyl = CCCCCCCCCCCCCCCC(=O)*; Hyp = O=C(O)[C@@H]1C[C@@H](O)CN1; NMeF = CN[C@@H](Cc1ccccc1)C(=O)O; Myristoyl = CCCCCCCCCCCCCC(=O)*; Tic = O=C(O)[C@@H]1Cc2ccccc2CN1; dTic = O=C(O)[C@H]1Cc2ccccc2CN1; NMeL = CN[C@@H](CC(C)C)C(=O)O; Lauroyl = CCCCCCCCCCCC(=O)*; NHoSer = not defined here; NMeS = CN[C@@H](CO)C(=O)O; hSer = N[C@@H](CCO)C(=O)O; Hexanoyl = CCCCCC(=O)*; βAla = NCCC(=O)O

T1: human Chemokine like receptor 1 (human, UniProt Q99788 1-373)
T1 sequence (looked up): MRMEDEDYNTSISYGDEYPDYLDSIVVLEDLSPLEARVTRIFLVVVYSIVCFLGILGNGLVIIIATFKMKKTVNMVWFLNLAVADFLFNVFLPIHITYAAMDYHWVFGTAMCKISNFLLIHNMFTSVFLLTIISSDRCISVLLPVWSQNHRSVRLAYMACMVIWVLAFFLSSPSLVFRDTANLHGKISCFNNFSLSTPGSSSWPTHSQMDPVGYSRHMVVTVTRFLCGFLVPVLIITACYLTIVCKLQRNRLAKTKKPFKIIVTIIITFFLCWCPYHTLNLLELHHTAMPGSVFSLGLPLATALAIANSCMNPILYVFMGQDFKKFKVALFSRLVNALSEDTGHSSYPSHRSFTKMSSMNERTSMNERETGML


Biological target: T1, human Chemokine like receptor 1
Experiment: cell-based or functional assay

Row | Binder | EC50 (µM), activation of Tango CMKLR1-bla U2OS cells
1 | [dY][2Nal][NMeL]P[dS]QF[dA][Tic]S [YW-200] | 0.019 µM
2 | [dY]F[NMeL]P[dS]QF[dA][Tic][NMeS]-OH (N-terminus assumed; SMILES CC(C)C[C@@H](C(=O)N1CCC[C@H]1C(=O)N[C@H](CO)C(=O)N[C@@H](CCC(N)=O)C(=O)N[C@@H](Cc1ccccc1)C(=O)N[C@H](C)C(=O)N1Cc2ccccc2C[C@H]1C(=O)N(C)[C@@H](CO)C(=O)O)N(C)C(=O)[C@H](Cc1ccccc1)NC(=O)[C@H](N)Cc1ccc(O)cc1) [YW-166] | 0.005 µM
3 | [dY]F[NPrL]P[dS]QF[dA][Tic]S [YW-184] | 0.016 µM
4 | [dY]F[NMeL][Pro(diF)][dS]QF[dA][Tic]S-OH [YW-174] | 0.0012 µM
5 | [dY]F[NMeL]P[dS]QF[dA]XS-NH2 (not fully specified (residue 9); printed as (D-Tyr)-Phe-(NMe-Leu)-Pro-(D-Ser)-Gln-Phe-(D-Ala)-Tic-Ser-NH2) [YW-190] | 0.0027 µM
6 | [dY]F[NMeF]P[dS]QF[dA][Tic]S-OH (N-terminus assumed; SMILES C[C@@H](NC(=O)[C@H](Cc1ccccc1)NC(=O)[C@H](CCC(N)=O)NC(=O)[C@@H](CO)NC(=O)[C@@H]1CCCN1C(=O)[C@H](Cc1ccccc1)N(C)C(=O)[C@H](Cc1ccccc1)NC(=O)[C@H](N)Cc1ccc(O)cc1)C(=O)N1Cc2ccccc2C[C@H]1C(=O)N[C@@H](CO)C(=O)O) [YW-100] | 0.042 µM
7 | Hydrocinnamoyl-[dY]F[NPrL]P[dS]QF[dA][Tic]S [YW-186] | 0.011 µM
8 | DiMe-[dY]F[NMeL]P[dS]QF[dA][Tic]S [YW-192] | 0.0026 µM
9 | {Palmitoyl-PEG8}-[βAla][βAla][dNMeY]F[NMeL]P[dS]Q[2Nal][dA][Tic][NMeS] [YW-179] | 0.0021 µM
10 | [dY]F[NMeL]P[dS]QF[dA][Tic][hSer]-OH (N-terminus assumed; SMILES CC(C)C[C@@H](C(=O)N1CCC[C@H]1C(=O)N[C@H](CO)C(=O)N[C@@H](CCC(N)=O)C(=O)N[C@@H](Cc1ccccc1)C(=O)N[C@H](C)C(=O)N1Cc2ccccc2C[C@H]1C(=O)N[C@@H](CCO)C(=O)O)N(C)C(=O)[C@H](Cc1ccccc1)NC(=O)[C@H](N)Cc1ccc(O)cc1) [YW-171] | 0.029 µM
11 | [dY]F[NMeL]P[dHoSer]QF[dA][Tic]S-OH [YW-175] | 0.091 µM
12 | {Palmitoyl-PEG8}-GG[dNMeY]F[NMeL]P[dS]Q[2Nal][dA][Tic][NMeS] [YW-178] | 0.0021 µM
13 | [dY]F[NMeL]P[dS]QF[dA][Tic][NMeHoSer]-OH [YW-177] | 0.025 µM
14 | [dNMeY]F[NMeL]P[dS]Q[2Nal][dA][Tic]S-OH (N-terminus assumed; SMILES CN[C@H](Cc1ccc(O)cc1)C(=O)N[C@@H](Cc1ccccc1)C(=O)N(C)[C@@H](CC(C)C)C(=O)N1CCC[C@H]1C(=O)N[C@H](CO)C(=O)N[C@@H](CCC(N)=O)C(=O)N[C@@H](Cc1ccc2ccccc2c1)C(=O)N[C@H](C)C(=O)N1Cc2ccccc2C[C@H]1C(=O)N[C@@H](CO)C(=O)O) [YW-167] | 0.0008 µM
15 | [dY]F[NMeL]P[dS]Q[1Nal][dA][Tic]S-OH (N-terminus assumed; SMILES CC(C)C[C@@H](C(=O)N1CCC[C@H]1C(=O)N[C@H](CO)C(=O)N[C@@H](CCC(N)=O)C(=O)N[C@@H](Cc1cccc2ccccc12)C(=O)N[C@H](C)C(=O)N1Cc2ccccc2C[C@H]1C(=O)N[C@@H](CO)C(=O)O)N(C)C(=O)[C@H](Cc1ccccc1)NC(=O)[C@H](N)Cc1ccc(O)cc1) [YW-165] | 0.0015 µM
16 | [dY][1Nal][NMeL]P[dS]QF[dA][Tic]S [YW-199] | 0.0029 µM

Row | Binder | EC50 (µM), activation of Tango CMKLR1-bla U2OS cells
17 | [dY]F[NMeL]P[dS]QF[dA][dTic][NMeS] [YW-182] | 0.041 µM
18 | Hexanoyl-[dY]F[NMeL]P[dS]QF[dA][Tic]S [YW-193] | 0.0014 µM
19 | {2‑cyclohexylacetyl}-[dY]F[NMeL]P[dS]QF[dA][Tic]S [YW-194] | 0.0012 µM
20 | {4‑(trifluoromethyl)benzoyl}-[dY]F[NMeL]P[dS]QF[dA][Tic]S-OH [YW-195] | 0.0008 µM
21 | Hydrocinnamoyl-[dY]F[NEtL]P[dS]QF[dA][Tic]S [YW-185] | 0.0059 µM
22 | [dY]F[NMeL]P[dS]QF[dA][Tic][NHoSer]-OH (reading uncertain; also: printed as (D-Tyr)-Phe-(NMe-Leu)-Pro-(D-Ser)-Gln-Phe-(D-Ala)-Tic-(NHoSer)) [YW-172] | 0.0058 µM
23 | [dNMeY]F[NMeL]P[dS]Q[1Nal][dA][Tic]S-OH (N-terminus assumed; SMILES CN[C@H](Cc1ccc(O)cc1)C(=O)N[C@@H](Cc1ccccc1)C(=O)N(C)[C@@H](CC(C)C)C(=O)N1CCC[C@H]1C(=O)N[C@H](CO)C(=O)N[C@@H](CCC(N)=O)C(=O)N[C@@H](Cc1cccc2ccccc12)C(=O)N[C@H](C)C(=O)N1Cc2ccccc2C[C@H]1C(=O)N[C@@H](CO)C(=O)O) [YW-168] | 0.0012 µM
24 | [dY]F[NMeL]P[dS]Q[2Nal][dA][Tic]S-OH (N-terminus assumed; SMILES CC(C)C[C@@H](C(=O)N1CCC[C@H]1C(=O)N[C@H](CO)C(=O)N[C@@H](CCC(N)=O)C(=O)N[C@@H](Cc1ccc2ccccc2c1)C(=O)N[C@H](C)C(=O)N1Cc2ccccc2C[C@H]1C(=O)N[C@@H](CO)C(=O)O)N(C)C(=O)[C@H](Cc1ccccc1)NC(=O)[C@H](N)Cc1ccc(O)cc1) [YW-164] | 0.0011 µM
25 | {Lauroyl-PEG8}-[βAla][βAla][dNMeY]F[NMeL]P[dS]Q[2Nal][dA][Tic][NMeS] [YW-181] | 0.0022 µM
26 | [dY]F[NEtL]P[dS]QF[dA][Tic]S [YW-183] | 0.0092 µM
27 | [dY][NMeF][NMeL]P[dS]QF[dA][Tic]S-OH (N-terminus assumed; SMILES CC(C)C[C@@H](C(=O)N1CCC[C@H]1C(=O)N[C@H](CO)C(=O)N[C@@H](CCC(N)=O)C(=O)N[C@@H](Cc1ccccc1)C(=O)N[C@H](C)C(=O)N1Cc2ccccc2C[C@H]1C(=O)N[C@@H](CO)C(=O)O)N(C)C(=O)[C@H](Cc1ccccc1)N(C)C(=O)[C@H](N)Cc1ccc(O)cc1) [YW-105] | 0.0106 µM
28 | {Myristoyl-PEG8}-[βAla][βAla][dNMeY]F[NMeL]P[dS]Q[2Nal][dA][Tic][NMeS] [YW-180] | 0.0014 µM
29 | [dY]F[NMehLeu]P[dS]QF[dA][Tic]S-OH (N-terminus assumed; SMILES CC(C)CC[C@@H](C(=O)N1CCC[C@H]1C(=O)N[C@H](CO)C(=O)N[C@@H](CCC(N)=O)C(=O)N[C@@H](Cc1ccccc1)C(=O)N[C@H](C)C(=O)N1Cc2ccccc2C[C@H]1C(=O)N[C@@H](CO)C(=O)O)N(C)C(=O)[C@H](Cc1ccccc1)NC(=O)[C@H](N)Cc1ccc(O)cc1) [YW-101] | 0.0029 µM
30 | [dY]F[NMeL]P[dS]QF[dA][dOic]S-OH [YW-176] | 0.0038 µM
31 | [dY]F[NMeL][Hyp][dS]QF[dA][Tic]S [YW-198] | 0.0053 µM
32 | [dY][Bpa][NMeL]P[dS]QF[dA][Tic]S [YW-201] | 0.076 µM
